The domain aggregation screens of Martell et al. (2025)

Assay: soluble fraction after stress (log2 fold change); higher = more stays soluble; pooled small domains, quantitative proteomics
Conditions: stress: 50 degC
Method in brief: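 Quantitative proteomics served as the high-throughput read-out for pooled custom libraries of small protein domains. Each was stressed at 50°C. Aggregation propensity is expressed as the base-two log fold change in soluble protein after stress. A higher value means a larger share of the protein remains in solution.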
With “HMAEVAFEEQNIEQISNLLLRIQAIFAELMTALDKEKGGEIADNLERLYVFFLEKLGDANVRKDPAP” the “soluble fraction (log2)” value was 0.00759. With “HMAEVHVDGVTYQFSNPEQAVKFARKIAKELGLKVEVHGETVHVK” the “soluble fraction (log2)” value was -0.156. For “HMAEVTLTVREQEVLHLLARGMSNGEMAAHLYVEPTTIKYHLTGLLQKTGSRDRLQAVLWGIRAGMVH”, the “soluble fraction (log2)” value was -2.18. With “HMAEWIYGKNVVKQSIEEGMVLKLILQRKEDPLFVLAQEKQIPVEILDRHKMTSLVKSDRHQGVAAQI” the “soluble fraction (log2)” value was -0.477. With “HMAFEDYAGEYRSAADFAESLHEDTGTEIPESLRYYIDWQALARDMALNGEIMVFQTGFDEVHIFWS” the “soluble fraction (log2)” value was -0.517. In the case of “HMAFEITSAERTRLEDIARKGLTAYTAEWKQLPASEKKALNKTGLQDFLKSMAADADSAREEEA”, the “soluble fraction (log2)” value is reported as 0.0772. For “HMAFKEQLKAARLAKGYTQEQLATAIGVAKSTFTGYEKGNSEPNMLTIKKLMEILEVDANYLWY”, the “soluble fraction (log2)” value was -2.49. For “HMAFRWQQIADTITSMIANGSYPRGSRLPTEAALADSFGVNRHTVRRAVAALRDTGLVQPRQGAGVFVIG”, the “soluble fraction (log2)” value was -1.55. For “HMAFYQDIAVDLRKQIIDGVYPKNSRLPNQAELAKLYTTSRVTIQKALKILQIEGLIEGRQGSGSYVKGP”, the “soluble fraction (log2)” value was -1.42. With “HMAGHKVDFSELPARSQAFIGKNFPTEMVKNVEMERKDAKDHYTVLLSNGTKVMFDGTSGELTGV” the “soluble fraction (log2)” value was 0.0973. With “HMAGISQGLAENVERRITTLLREQKEVPVHDIDFPGISRETVGQVLHQMVQEEKLLLDDGMISLSPNQ” the “soluble fraction (log2)” value was 0.143. For “HMAGPAGASEVANARDGDDETPLHMAARGGYPGIVRMLLAAGAKADAKSAAGLFPWNYAEDGSELHALLPR”, the “soluble fraction (log2)” value was 0.0684. In the case of “HMAGPTIVTNSQGVPNYHLVKRGDTVSQIAQRYGLNYRQIGAINNLDSKYTIYSGQWLKLWQG”, the “soluble fraction (log2)” value is reported as -0.702. For “HMAGQWQQDQNGWKYKTDNGDHMKNTWYQDSDSRWYYFGPDGYMKSSTMTPDGYVVGSDGAWIE”, the “soluble fraction (log2)” value was -0.518. In the case of “HMAGSGDLNAKYLASIPAPMKAKILKAVANHYGVSISEFEEEVTDKDAEALYEYIPTRSMAVQVLRDMKG”, the “soluble fraction (log2)” value is reported as -0.373. In the case of “HMAGSGLPVPRFVSLADDRVNARAGPGFRFPINWVYLRKGFPVEVVDEFGPWRRIRDIDGVAAWIHLSMLS”, the “soluble fraction (log2)” value is reported as -0.85. In the case of “HMAGTAFPVRIMLKGIDRIGLLNEITGYISVAMGVNMRKLNLSTEDGIFEGYIDMLVHDRTVLESMIDNL”, the “soluble fraction (log2)” value is reported as -0.381. In the case of “HMAGTELASIKEIQSLVDRSEEALSARNFFWPKDKSESMLLSFRNMFSRLKLTKMDVQIFHGIFKVMEKS”, the “soluble fraction (log2)” value is reported as -0.0116. In the case of “HMAGVSVTSLTTFWRLAADTPDTPSGADDPSGWSRTEPSIPDGYEGKLYRTIRTIMSDGTATWTSPD”, the “soluble fraction (log2)” value is reported as -0.357. With “HMAGYDTYMVDRDAELLPWLLETLQRESRSKVKATLQGNGIKVNGKRVTQFNYPLKAGMKVSVSKSK” the “soluble fraction (log2)” value was -0.0376. In the case of “HMAHILDLMELKQILRLHMDGLSNRRISDTLGIHRNTINSYVSQFKASKHGIEELLKLSDYELAQLFP”, the “soluble fraction (log2)” value is reported as -2.26. With “HMAHRYQQIADDLGRRVEAGEFAAGRLLPSEATLSGQYKASRVTVRKALEALRTDGLVESRQGFGWFVAAD” the “soluble fraction (log2)” value was -0.379. For “HMAIADQPISAEHFDKLRQVLNSNTQETIASAKQHWASISNNAEFTNENVTRTLLEEMLAFIKSAS”, the “soluble fraction (log2)” value was 0.307. In the case of “HMAIDVQELARTRLRSLRTTLGYSLDELAARTHLSPSTISRLETGKRSLSLDVVVPLAQALHVSLDVLFEA”, the “soluble fraction (log2)” value is reported as -2.68. In the case of “HMAIEGIFEKYQRRSDQLIPILQDVQKEFGYIAPESVRHISRYLRISENQIFGVSSFYAQFRFT”, the “soluble fraction (log2)” value is reported as -0.292. With “HMAIGTDPETGISVVADGTDFIWTRSGATSTIFLRLDSENSYILNVKQGDFEVIDYELGEGQENAINIDQS” the “soluble fraction (log2)” value was -0.0311. For “HMAIPEVDPAKQGVSATQLAALDALAHRNAGEGRVAGMVNVVIRNGEIVYYKATGPRHIDGGAPLKSTDLF”, the “soluble fraction (log2)” value was -0.153. For “HMAIQGVRLYERTLETGDPWLDRPLSTLSTGTRLIILVRRGGDVLIPKGDTVLLAGDTLVINDS”, the “soluble fraction (log2)” value was -3.24. For “HMAIRPDAAVSSHAVKQRLQSLIRAEDPAAPLSDEALRLALSALGIGVSRRAVAKYRAEMGIPSSSQRKK”, the “soluble fraction (log2)” value was -0.0632. For “HMAISQYGSQSDEVTKIQTRLKAWGYFDGPVTAYYGSQTTEAVKKFQQKHGLSATGVADAKTLELIGLP”, the “soluble fraction (log2)” value was -0.36. With “HMAITLEQFLSVNPHIRNNLYGNAVELVKDKDFSVLSDKLKASSKWANEPSLYKILSHYDEIIS” the “soluble fraction (log2)” value was 0.063. In the case of “HMAKDSQSADVLQAIFDGSKVLNGLALDQDMRWDLINGLVMSGRLGVEAIEAEAAKLAKLVEELEFR”, the “soluble fraction (log2)” value is reported as -0.892. In the case of “HMAKETLRANIKDYIQKQIASGVYRPGDRIVETQLAREMNVSQAPVREAILELVSLGLLEERPYSGHMVRQ”, the “soluble fraction (log2)” value is reported as 0.178. For “HMAKIKVFELKNQINSLIKNKIESKDIIDFIETNFGVKKSHSSALEENEANFIKNYFVHADKA”, the “soluble fraction (log2)” value was 0.195. In the case of “HMAKIPASTVVEIDGAPVVVAVRVNARARSYRLSIPHSGGPLLTLPPHGKWAEAEAFLLRHHNWLAARLHR”, the “soluble fraction (log2)” value is reported as -2.47. With “HMAKQEPTDNGYDIYKVTASVLNVRNGAGTSYAVAYQLSKEDYVEVVSIDKGWAKLKDGKYVSADWITLYK” the “soluble fraction (log2)” value was -0.54. For “HMAKRINVKLIMELSAGGLTQNEIASSRHFSKTSVNLVLKTARELNVSAADLREMSPEEAYRLFFPEK”, the “soluble fraction (log2)” value was -1.43. With “HMAKRKTEKTSVLEEIDGVGKARARALLARFGGLSGVKAASPEELRTVRGITPEIAENIRRYFQ” the “soluble fraction (log2)” value was 0.121. In the case of “HMAKRMRNPNGYGSIVKLSGNRRNPYMVKVNTHMDERYYPVYDILGYYPTWADASIALAKYNDDPYNVS”, the “soluble fraction (log2)” value is reported as -0.453. In the case of “HMAKRQATIVYEGTNVRSGPSTSSAIVKRTGKGESYPIVSTKGDWYEIKLSNGDSAYVASWVVQTVD”, the “soluble fraction (log2)” value is reported as -0.328. For “HMAKRYFVTTGVRVRTKPDTANSEVLTVLDEGSEIDYKGDYNNEWVKINYNGQEAYIAKQYVRSEE”, the “soluble fraction (log2)” value was -0.377. In the case of “HMAKSDLNYLDFKSKLEAGEIAKASVIRNEDTFKVTLQNGEVYNVTSPDYEDFRKELLEAGVDIQVSK”, the “soluble fraction (log2)” value is reported as 0.114. For “HMAKSMRHLIVPSRETSLWRDKLSTNGWLSKGYGIHNLDDYRGIPLNETAPKIIEGLEITELEPIS”, the “soluble fraction (log2)” value was 0.0863. For “HMAKTALEQAQAMVAAYVAAEQQILLGKEVRMGGPGIDRWLRFEDLQEVRAGRKEWESTVTRLQNTAA”, the “soluble fraction (log2)” value was -0.404. With “HMAKTGMDALVGRRVVLTKAIAGEGEGLVAVDGDVWRATSPAGSAIPKGTEVRITGYRSIVLEVEPI” the “soluble fraction (log2)” value was -0.184. For “HMAKYEVVAKDIISRIKQNEFETTLKLPTEDEMIEYYQVSRNTVRSALKLLTSQGIIFSRQGSGFYIRQRS”, the “soluble fraction (log2)” value was -0.677. For “HMALALSGVDLNRNRLTISWQTSKGVSYRVQRSSDLQSWTDVGAERLGNGNRLSHTQALNTESAFLRVII”, the “soluble fraction (log2)” value was -0.0897. For “HMALEGTLARVSVRIPESGVGEIIFSLGGVRRSEAARSVSGRAIPRGTEVVILSYERGIATVQPYEELLTN”, the “soluble fraction (log2)” value was 0.013. For “HMALEVPGIAKDKIYRIFGQLYERQQKWEDAIDYYNRAVFFTLSGTDMILYQEDLSRVKQKISL”, the “soluble fraction (log2)” value was -0.0269. In the case of “HMALKRVAPQGEDKLSAQLDGVEFDKLIPWLGMLEHDHRIAIVNLSIDRANATGLVNARVIL”, the “soluble fraction (log2)” value is reported as -0.0239. With “HMALKSGVIAHAVDDAVMRGLNVFTVSDDGSIVSMKDNDIVLGKDGKSPYSVSEWLEELKPNVPHWFG” the “soluble fraction (log2)” value was -0.0243. With “HMALKSYEDMVGKTGVAYTVLRPSGKVIINDELFDATARSGMIEKGNEVIIYDYKNAQLIVEK” the “soluble fraction (log2)” value was 0.0774. With “HMALPASLSPREREIVSLISQGKTNSEIASLLYISVPTVKTHISNIFQKTGVSNRTSLLNRLRMS” the “soluble fraction (log2)” value was -0.164. For “HMALPHEIKQKWLEEIMTMLRSSDSVTINKVYLHFPENKSHWVDEILTDLSNTHMITRQHDFIRLKN”, the “soluble fraction (log2)” value was -0.282. In the case of “HMALQDKYKQLVDTATASGVANLQVREQDGVLYIDGEAPSGSVKDQLWDIYGKIDPNFLSGDVVMNINV”, the “soluble fraction (log2)” value is reported as -0.0683. In the case of “HMALQLPFSFAKRHKVLVESAHEPVKVYHTPSTDFAVFAEVRRFLDQTFVLEEIAENRFEELLTSSFQRD”, the “soluble fraction (log2)” value is reported as -1.27. With “HMALSETIYRLRTEHGLSQGDLAAELDVSRQSISKWETGSSVPELDKLVAMSRLFGVSLDELVLGE” the “soluble fraction (log2)” value was -0.63. For “HMALSLPDDMTIVRKDGSSLEVRLKSRTVTEIHFERISDSETFQFSIDQLDETTRELVEQYPVM”, the “soluble fraction (log2)” value was -0.0919. In the case of “HMALTAEVLRSLIKHHGLGQSIQRTAKAVGLSASTVKKYFDRIAAANLTWQEAKSRTQEELIASLQPT”, the “soluble fraction (log2)” value is reported as -0.358. With “HMALTARDLGLTHRQADVLHLVLQGKPVKLIARDLGLAEGTVKSHVSAVLRALNVTTRTQAIVAAGRLGLM” the “soluble fraction (log2)” value was -1.92. In the case of “HMAMDITLPLAEVRRQSLEQIERQYLNELMSKHLGRINRAAEAAGITTRQLHKLLTKYSIRKEDFK”, the “soluble fraction (log2)” value is reported as -0.673. With “HMAMESDELETLVDQLIVDHPDEWSRFVGGDDGDRKKMQGFFTGQIMKATKGQADGRAVAQLLGQKSA” the “soluble fraction (log2)” value was 0.0334. With “HMAMLSKREAEILKLTAKGHSSTDIAQRLTISVNTVEFHRRRIMQKLNAANVAEAVGKAAELGLFF” the “soluble fraction (log2)” value was -0.438. With “HMAMSAGEVVERIREHVGHPATIKELMRVLAIPNEERYRFRRRIKQLVEAGELIRIRGNRYGLADR” the “soluble fraction (log2)” value was -1.85. In the case of “HMAMTITKIEKTSQQKIYYFTDSGRVFKKMSDRSATIAVDDRVELEGGVLGSKFFVTANGSRVKVKEV”, the “soluble fraction (log2)” value is reported as -0.516. In the case of “HMAMYSREKLKKLREDRGLTQYELAKIAGISVVTLNKIESSDSAKPFVKTLNKIAQALGVGIDELS”, the “soluble fraction (log2)” value is reported as -0.127. With “HMAMYYVIGGDGQQYGPIDEATVRGWLGEGRVSAASLSFKTGEAQWIPLRDRPELADVLATA” the “soluble fraction (log2)” value was 0.112. In the case of “HMANKLSEQIYGSILKDIVNGVYAPREFISEAQIAAKYGVSKAPVKEAMHILASEGFLLSYPKRGYMVN”, the “soluble fraction (log2)” value is reported as -0.347. With “HMANKQLQEKLKNYISENGSLSSAAKAIGLSPATLSTYLKDKYEGNVANVETRLTEIFETVEAANNLL” the “soluble fraction (log2)” value was -0.258.
